Measurements from patent US12616648B2, “Cosmetic composition” (GIVAUDAN SA, priority 2018, dated 2026).

Test system: Normal Human Keratinocytes (NHEKs)
Assay: NHEK scratch assay (wound healing)
Format: cell-based
Conditions: HB-EGF 1 ng/ml (positive control), overnight pre-incubation, 8 h after scratch
Method: Normal Human Keratinocytes (NHEKs) were seeded at 200′000 cells per well pre-coated with Type I collagen in 12-wells culture plates in the presence of keratinocyte growth medium (KGM, Lonza) supplemented with growth factors such as hydrocortisone, transferrin, epinephrine, bovine pituitary extract (BPE), recombinant human epidermal growth factor (rhEGF) and insulin. At confluence, cells were pre-incubated with the Patchouli stem extract of Example 1 at a concentration of 0.5% (v/v) or heparin-binding epidermal growth factor (HB-EGF) at 1 ng/ml (positive control) overnight in keratinocyte basal medium without supplement. After this pre-conditioning phase, the cell monolayer sticking to the bottom of the well was scratched with a P200 sterile cone, followed by two washes with phosphate buffered saline (PBS). The NHEK were then again stimulated with Patchouli extract at 0.5% or HB-EGF at 1 ng/ml for 8 h in basal medium.
The wound healing process was analyzed by pictures recording at T0 and T8h using inverting optical microscope (Zeiss). After image analysis, the percentage of scratch closing was determined relative to untreated condition.

B1: HB-EGF: heparin-binding epidermal growth factor, positive control in the scratch assay (protein, UniProt Q99075 63-148, looked up)
Heparin-binding EGF-like …: DLQEADLDLLRVTLSSKPQALATPNKEEHGKRKKKGKGLGKKRDPCLRKYKDFCIHGECKYVKELRAPSCICHPGYHGERCHGLSL
wound healing (scratch closing relative to untreated condition): about +60%
